B1: Probable E3 ubiquitin-protein ligase MID2, residues 191 to 235; numbered along this chain, Q9UJV3 (parent)
chain: RGITCLDHENEKVNMYCVSDDQLICALCKLVGRHRDHQVASLNDR

Variants of: B1
Experiment: abundance fitness (aPCA) (normalised: wild type 0, dead -1); higher = more abundant; growth selection in yeast, the domain comes from the species named
Details: Homo sapiens

Abundance fitness, by site and new letter:
Q22: Y -0.264 | R 0.1 | S 0.049 | T -0.062 | D -0.19 | I -0.259 | L -0.177 | E -0.113 | K 0.05 | V -0.012 | P -0.381 | W -0.515 | M 0.054
M15: K -0.176 | T -0.1 | F -0.069 | D 0.001 | A 0.063 | P -0.251 | V -0.277 | R -0.118 | W 0.11 | C 0.259 | Q 0.166 | G 0.081 | L 0.003
D20: C -0.178 | K -0.357 | A -0.77 | Y -1.43 | E -0.096 | M -1.19 | P -0.625 | W -0.809 | N -0.456 | L -1.08 | G -0.589 | T -0.706 | H -0.459 | V -1.03
N14: E 0.104 | A 0 | K 0.015 | P -0.434 | Q 0.119 | G -0.021 | D -0.132 | V -0.055 | W -0.482 | H 0.117 | T 0.049 | C -0.204 | R -0.087 | L -0.124 | S 0.06 | M -0.487
A26: H -0.169 | G 0.103 | V -0.174 | P -0.018 | D 0.13 | S -0.006 | R 0.006 | Q -0.017 | E 0.031 | I -0.621 | M -0.359 | L -0.296 | T -0.068 | K -0.051 | F -0.277 | Y -0.092
E11: T -0.223 | C -0.063 | W -0.215 | M -0.174 | S -0.236 | V -0.519 | Y 0.129 | I -0.334 | A -0.177 | F -0.248 | Q -0.097 | P -0.838 | R -0.171 | L -0.524 | G -0.245 | K -0.33
D21: K 0.011 | N 0.031 | L -0.526 | P -0.819 | M -0.316 | E -0.056 | Y -0.527 | A -0.081 | S -0.088 | Q -0.132 | H -0.283 | I -0.951 | V -0.585 | T -0.163
S19: V -0.032 | G -0.005 | L -0.08 | Q 0.097 | Y -0.296 | N -0.092 | M -0.067 | D -0.18 | F -0.146 | P -0.047 | T 0.049 | H 0.093 | A 0.107 | K -0.049 | E 0.07 | W -0.211 | R -0.041
I24: D -0.121 | G -0.269 | R -0.373 | C -0.436 | A -0.104 | P 0.196 | H -0.197 | T -0.122 | V 0.058 | E -0.141 | Q -0.006 | M -0.104 | K -0.105 | S -0.179
V18: F -0.112 | C 0.036 | T 0.2 | G 0.011 | I -0.165 | L -0.024 | K 0.079 | N -0.125 | D 0.065 | S 0.027 | A 0.054 | P -0.025 | W -0.19 | R 0.056
C17: Q -0.369 | M -0.517 | T -0.269 | P -0.319 | V -0.486 | N -0.212 | R -0.304 | E -0.163 | S -0.157 | W -0.792 | G -0.129 | K -0.01 | L -0.775 | Y -0.635
E9: D 0.017 | L 0.032 | W -0.252 | P 0.173 | I -0.128 | N 0.056 | V -0.299 | S -0.033 | K 0.073 | Q 0.021 | T 0.151 | F 0.1 | A 0.098 | M 0.022 | C 0.028 | R -0.024 | Y -0.051
L27: S 0.052 | D -0.029 | G -0.058 | V 0.039 | W -0.145 | I -0.466 | Q 0.263 | T -0.144 | E 0.144 | F 0.099 | K 0.517 | M -0.012 | N 0.311 | H -0.03 | P -0.215 | Y -0.263
D7: L -0.162 | Q -0.147 | I -0.015 | G -0.364 | T -0.223 | N -0.107 | V -0.17 | P -0.55 | R -0.238 | W -0.294 | Y -0.112 | S -0.173 | H -0.015 | M -0.239
K29: I -0.037 | P -0.054 | N 0.153 | H -0.032 | F -0.132 | G 0.097 | M -0.029 | D -0.211 | A 0.063 | C -0.144 | E -0.039 | L -0.286
H8: V -0.809 | D -0.335 | T -0.555 | G -0.582 | M -0.588 | W -0.97 | R -0.655 | L -0.703 | K -0.533 | E -0.47 | Y -0.831 | F -0.808 | C -0.408 | I -0.976
V13: Q -0.047 | A -0.104 | I 0.1 | T -0.179 | W -0.619 | R -0.077 | S -0.092 | E -0.215 | G -0.143
C25: F -0.468 | S -1.03 | N -1.14 | E -0.786 | V -1.03 | G -0.805 | T -0.526 | Y -0.841 | Q -1.02 | R -1.2 | L -1.34 | P -0.417 | W -1.92 | A -1.12 | K -0.951 | D -0.834
N10: M -0.173 | S -0.156 | L -0.102 | C -0.175 | Q -0.313 | A -0.348 | F -0.577 | V -0.416 | P -0.414 | R -0.138 | G -0.198 | W -0.394 | I -0.176 | E -0.55 | T -0.26 | H -0.036 | K -0.226 | D -0.072
K12: L -0.049 | I -0.244 | V -0.083 | R -0.042 | P 0.124 | W -0.229 | C -0.389 | A -0.095 | E 0.104 | Q -0.103 | G -0.102 | S 0.095 | D -0.012
Y16: T -0.392 | P -0.065 | S -0.178 | R 0.183 | K 0.54 | V 0.023 | D -0.067 | H -0.114 | W -0.039 | M -0.321 | A 0.077 | G 0.024 | N -0.251 | Q 0.236 | C -0.176 | L -0.127
L23: S -0.009 | N 0.352 | P 0.144 | M 0.199 | E 0.137 | W -0.038 | D 0.064 | T -0.046 | K 0.213 | R 0.023 | V 0.006 | H -0.074 | Q 0.099 | C 0.049
C28: E -0.897 | D -0.469 | Q -0.505 | P -0.439 | V -1.11 | K -0.906 | T -0.541 | G -0.58 | R -1.05 | M -0.942 | A -0.805 | Y -1.14 | S -0.678 | W -0.997
